In US20110274694:

Target: purified Gβγ (G-protein βγ-subunits)

B1: His6-Erk2 (purified, wild-type) (protein)
chain: MAAAAAAGPEMVRGQVFDVGPRYTNLSYIGEGAYGMVCSAYDNLNKVRVAIKKISPFEHQTYCQRTLREIKILLRFRHENIIGINDIIRAPTIEQMKDVYIVQDLMETDLYKLLKTQHLSNDHICYFLYQILRGLKYIHSANVLHRDLKPSNLLLNTTCDLKICDFGLARVADPDHDHTGFLTEYVATRWYRAPEIMLNSKGYTKSIDIWSVGCILAEMLSNRPIFPGKHYLDQLNHILGILGSPSQEDLNCIINLKARNYLLSLPHKNKVPWNRLFPNADSKALDLLDKMLTFNPHKRIEVEQALAHPYLEQYYDPSDEPIAEAPFKFDMELDDLPKEKLKELIFEETARFQPGYRS
phosphorylation of Erk2 ([32P]-autoradiography): caused increased phosphorylation of Erk2 to an extent similar to that caused by Mek*
